Assay results reported in patent US7745159.

Key:
[1] = biological target: antigen defined by MAb OV569 on human carcinoma cell surfaces (human); assay: flow cytometry, OV569 supernatant on ovarian carcinoma line H4014, against an irrelevant MAb
[2] = biological target: antigen defined by MAb OV569 on human carcinoma cell surfaces (human); assay: flow cytometry, OV569 supernatant on lung carcinoma line H4013, against an irrelevant MAb
[3] = biological target: antigen defined by MAb OV569 on human carcinoma cell surfaces (human); assay: flow cytometry, OV569 supernatant on ovarian carcinoma line H3759, against an irrelevant MAb
[4] = biological target: antigen defined by MAb OV569 on human carcinoma cell surfaces (human); assay: flow cytometry, OV569 supernatant on ovarian carcinoma line H4002, against an irrelevant MAb
[5] = biological target: antigen defined by MAb OV569 on human carcinoma cell surfaces (human); assay: flow cytometry, OV569 supernatant on ovarian carcinoma line H3633, against an irrelevant MAb
[6] = biological target: antigen defined by MAb OV569 on human carcinoma cell surfaces (human); assay: flow cytometry, OV569 supernatant on ovarian carcinoma line H3909, against an irrelevant MAb
[7] = biological target: antigen defined by MAb OV569 on human carcinoma cell surfaces (human); assay: flow cytometry, OV569 supernatant on ovarian carcinoma line H4012, against an irrelevant MAb
[8] = biological target: antigen defined by MAb OV569 on human carcinoma cell surfaces (human); assay: flow cytometry, OV569 supernatant on lung carcinoma line H2981, against an irrelevant MAb
[9] = biological target: antigen defined by MAb OV569 on human carcinoma cell surfaces (human); assay: flow cytometry, OV569 supernatant on ovarian carcinoma line H4007, against an irrelevant MAb
[10] = biological target: antigen defined by MAb OV569 on human carcinoma cell surfaces (human); assay: flow cytometry, OV569 supernatant on ovarian carcinoma line H4010-1, against an irrelevant MAb
[11] = biological target: antigen defined by MAb OV569 on human carcinoma cell surfaces (human); assay: flow cytometry, OV569 supernatant on ovarian carcinoma line H3750, against an irrelevant MAb
[12] = biological target: antigen defined by MAb OV569 on human carcinoma cell surfaces (human); assay: flow cytometry, OV569 supernatant on ovarian carcinoma line H3538, against an irrelevant MAb
[13] = biological target: antigen defined by MAb OV569 on human carcinoma cell surfaces (human); assay: flow cytometry, OV569 supernatant on lung carcinoma line H3776, against an irrelevant MAb
[14] = biological target: antigen defined by MAb OV569 on human carcinoma cell surfaces (human); assay: flow cytometry, OV569 supernatant on lung carcinoma line H2987, against an irrelevant MAb
[15] = biological target: antigen defined by MAb OV569 on human carcinoma cell surfaces (human); assay: flow cytometry, OV569 supernatant on lung carcinoma line H3754, against an irrelevant MAb
[16] = biological target: antigen defined by MAb OV569 on human carcinoma cell surfaces (human); assay: flow cytometry, OV569 supernatant on ovarian carcinoma line H3659.5, against an irrelevant MAb
[17] = biological target: antigen defined by MAb OV569 on human carcinoma cell surfaces (human); assay: flow cytometry, OV569 supernatant on ovarian carcinoma line H4004, against an irrelevant MAb
[18] = biological target: antigen defined by MAb OV569 on human carcinoma cell surfaces (human); assay: flow cytometry, OV569 supernatant on lung carcinoma line H3963, against an irrelevant MAb
[19] = biological target: antigen defined by MAb OV569 on human carcinoma cell surfaces (human); assay: flow cytometry, OV569 supernatant on ovarian carcinoma line H4006, against an irrelevant MAb
[20] = biological target: antigen defined by MAb OV569 on human carcinoma cell surfaces (human); assay: flow cytometry, OV569 supernatant on ovarian carcinoma line H3907, against an irrelevant MAb

LFE(sample)/LFE(control) [1]: 1
LFE(sample)/LFE(control) [2]: 7
LFE(sample)/LFE(control) [3]: 6.74
LFE(sample)/LFE(control) [4]: 8.48
LFE(sample)/LFE(control) [5]: 1
LFE(sample)/LFE(control) [6]: 3.84
LFE(sample)/LFE(control) [7]: 1
LFE(sample)/LFE(control) [8]: 1.3
LFE(sample)/LFE(control) [9]: 8.72
LFE(sample)/LFE(control) [10]: 1.12
LFE(sample)/LFE(control) [11]: 2.57
LFE(sample)/LFE(control) [12]: 2.55
LFE(sample)/LFE(control) [13]: 1.33
LFE(sample)/LFE(control) [14]: 1.25
LFE(sample)/LFE(control) [15]: 1.59
LFE(sample)/LFE(control) [16]: 5.63
LFE(sample)/LFE(control) [17]: 2.43
LFE(sample)/LFE(control) [18]: 1.11
LFE(sample)/LFE(control) [19]: 2.53
LFE(sample)/LFE(control) [20]: 3.85
Substance: monoclonal antibody OV569
